Experiment: soluble on expression in E. coli; label from the status in PepcDB or PDB records

Which “soluble on expression in E. coli” value does the source give for “MRAVFRTDIGQIREHNEDSGGVFVNQSGQYLAVVADGMGGHRAGDVASSMAVAYLQERWEKESGLASPAEAEQWLKTQIASANEQLFRHALSHPECQGMGTTVVAAVCANSFATVAHIGDSRCYVLNKSGIQQLTDDHSLVNELVKSGQLSKEAAEHHPRKNVLLRALGTEPAVKIDVKTVALDEGDMLLLCSDGLSNKVPEADMIHILTGAGTLEEKAEALIQLANGRGGEDNISLAVIDVSAEREGG” here?
Its value is “not soluble”.

For “MLARYLNLIGRRSASPYRPQRLPAKFDNVIVAMSSGVDSSVAAALFAGEFPNTRGVYMQNWSESQSLDDPGKEPCYERDWRDVNRVAKHLNIRVDKVNFEQDYWIDVFEPMLRGYSEGSTPNPDIGCNKFVKFGKLREWLDEKYGTGNYWLVTGHYARVMQEMNGKGLFHLLRSIYRPKDQSYYLSQINSTVLSSLLLPIGHLTKPEVRDLAKYAGLPTAEKPDSQGICFVNNSQHGKFKNFLKHYLPSSPGDIITVDPQSGAKTTWGRHDGLWSYTIGQKVGISMPQADPNYQGTWFVSEKLRDTNEILIVRGRDNPALYSDTMRIENFSSLGPREDTINAFQNTGALTLQFRSLQVPVQIKSCKLNRSADNLDITIHLASKQRAITPGQSCCLYIDDRVLGSGPISHVNNNDTHA”, which “soluble on expression in E. coli” value is on record?
The value was “soluble”.

Which “soluble on expression in E. coli” value does the source give for “MGSDKIHHHHHHMGVQSAVRVHRAISEIGQDAWDACAASTGDPFVSYDFLSILEESGCVAARTGWAPQHLTVLDEADQVAGVMPLYLKSHSQGEYVFDHSWADAYERAGGRYYPKLQCSSPFSPVTGSRLIVRPDIDAAEGRSALMGGALTLCERMGASSLHVTFPVEDQWRWMGERGMLLRQDQQYHWENRGYETFDDFLGALSANRRKTIRRERRDAQEGLEIVALTGADLTEDHWDAFFAFYMDTGGRKWGRPYLNRPFFSLLGQRMADKVLLILARRPGGPFIAGALNLLGRDCLYGRHWGCVEDAPFLHFELCYYQAIEHAIRLGLPRVEAGAQGQHKIARGYLPSAVYSAHWIADPMLREPVARYLERERAAVESDMEMLTEEYSPFREER” here?
The value was “not soluble”.

Which “soluble on expression in E. coli” value does the source give for “MAHHHHHHMLRRTVARFMASEAIGPAHPDILWGFMDGRYAGPGWVSWIKQLPVETLTMQGGTSMTNMNDRAGVILDPEDPRHSMALIQWGPMNHYDGAFMQLSYGDYGEIKKGSRLMQVLYDHYLEPFSMNRVCAQLYFYQKVPNNYHASVEASAEYIGQTASLVGQVVVGMGSVIMEGVTVKGDTNCVYIAEGVQVMENTCIVSDAPTDLLAYQRHEAINPYQQWDGMDGVCRIMQNTMIEPNCFLDSCSIGPFNRIGHNTKILKGVTTGTMVHILPGSVVTADTRIGDGELWGGAPAVKLGKVSKFEWKRPYYASLLHKECVVESYRNMSRYGDQVVYFQDEMGKLDTLMLQFESDITPSVKAKMKEFVQGREPFHHMLTRITQGWSPANRPDDKNYNLCPPLPAVKLFAEHNNDSSDSSLHGTYMNITNIFNDFRW” here?
Its value is “not soluble”.

With “MGHHHHHHGGHMSLPKFSPCLWFNTQAEEAANFYTTIFEKGAILSKTNYVNEEHQPQGTSLMTIEFTLANQTIIGLNGGPEFSFTPASSFFVECTTLPQTETLWKNLTADGQILMPFGEYPFSPLYGWVVDKFGVSWQVSFSGKEQTIVPTFMFANEKYGEAAKALSEWLAIFGPGEIIEKVEYEDGNIAQALFTLQEQPFRVMDARDKHDFDFTMAFSIYIDCENQEEIDRLWQQVTAKGKEWPCGWMEDQFGVSWQTGNPELKRYLSDSNPARANEVTKKLYQMKKIDLNQLKEVYDKYNHEGGS” as the sequence, how does the “soluble on expression in E. coli” value read?
The value was “soluble”.

With “MGSDKIHHHHHHMRRVNRPAPLSERQYEYMQRCINSWFNVAEGGKRGGKNVLQTLIFCSLLETHKNKIHLVAGVSSATAKLNILDCDGYGLLNYFEGRCREGKYKDRDCVYVQTKTGEKIVLVSGGGKDGDEKLIKGNTYGMAYVTEANECHQKFLKEVFDRTLSSTDRKIFHDLNPKEEEHWYYTEILKFHEEQQANDENYGYNYGHFTLVDNMSMSDEKIRTVLKTYQKGTVWYKRDIKGERAVAEGIIFRKFKENNIPYLCDDSILKYNKDGELFPRPSKVIIGMDFGGNGSMTTMVCSLYFRGYHFIYPVEEDYLELSPDIDANNICDKYIEFYRRCAAKYERIDWTFPDSASTTMINSLRSAAKKDGLRYDHIAGCRKNEISERPRTVDLLLNTGRMKVHKRCVNLRKAIGTLKWDEKHPNIPEDKNIGNCNDWWDALCYTMLDFIEYIDLDR” as the sequence, how does the “soluble on expression in E. coli” value read?
The value was “not soluble”.

Which “soluble on expression in E. coli” value does the source give for “MAHHHHHHMTDASKYKKLTPIDHVLLRPEMYVGSIETQPTPMYIFDPEKGRMVWETMRVNQGLLKIVDEILLNAADNINNSKGSVRQTYINIHISDTGEITVENDGAGLPIVRSREHKMYIPEMVFGHLLTSSNYNNDSTSTTAGRHGYGAKLTNILSTKFSVVCRTDGREFHMSWTDHMRMATAPRVNRVDPKEKNVTRVKFMPDYAHFGFPSASISLDMKRVLHKRVMDLAAMFSKIEVRLNNVPFGFRTFTDYAGLYSLPGLDGSMPPEPFVYTSPNGSVAYVPQLTQSPKRIVSVVNGVVTYNGGTHCNAAMDILDACLDSLSKNFKKNGKVVDTNRVQRHFTVLVFLVQAQPKFDSQSKARLVSTVTMPRVPKNTLEKYLERMPFLEAHVNSMDDQLTNELNKEIGAGRRLSSKTLISSITKLVDATSSRPDGRNIRTLIITEGDSAKALALNSLSSEQKKYCGVFPLRGKLLNVRNKNLKRLKTCKELQDLFLSLGLELGKEYRSPAELRYQRLLVMTDQDADGSHIKGLVINAFESLWPKLLQNNPGYISLFSTPIVKIKVSGKSKEAIAFHSFRDFHRWQRAHPSARYTAKYYKGLGTSTTAEGKEYFADMEKNVMQLTVDARDHQLLDSVFDAAEVEWRKEWMTKANAFQGEVDIDRSKKTLTIPEFVHKEMVHFALVGNARAIPHCVDGLKPSQRKILWAMLRRHNSEASKVAQLSGYISEASAFHHGEASLQETIVKMAQNFTGGNNINLLVPEGQFGSRQQLGSDHAAPRYIFTKLSRFARLLFPEEDDPLLDYMDEEGTFVEPHHYVPILPMLLCNGAVGIGFGFATTIPSFHPLDVSAAVRAMINGESAKQVVRNLVPWAVGFQGTVRRGPDNEFIAVGKYTAHPNGRFHISEIPWMTSIEAFRLHISSLASADVVQRIADYSGANHIDIDLIVRDGSLTTWAECETDLALAQRIYINGTVFSPAGTLSPIDSDLSPVLQWHYDRRLDLYKRRRTRKIGLMEMDLARLQSTRKFVEHFRQGQIDFLNATDDTLHKTCVKLGLVRVDESFDYILKKPITFFTRTSTEKLQADIAKTQAQIEELKRTTPVKMWLTELDKFDKTFQEYERVLINSIQKEQRSSSITGGVELPALRQPLLLLEASVKGATAYRVHACQYEKPPPSKRRPGESFGGARSSDSAVRGVGKRLVGSRAVFKKKKPMGRKNNVKVSLSTRVAQFAGAQLGRLLPHILV” here?
The value was “not soluble”.

Which “soluble on expression in E. coli” value does the source give for “MAYLVAVTACVSGVAHTYMAAERLEKLCLLEKWGVSIETQGALGTENRLADEDIRRADVALLITDIELAGAERFEHCRYVQCSIYAFLREPQRVMSAVRKVLSAPQQTHLILE” here?
The value was “soluble”.

For “QKTGIYDSLRLKLEIVKFYSPNERDAAFHSGNVEGTVIDYTGAAMQQAGGIDLQLVMRLDGYFRLVMSKDYTGESLETLKGKNLGISRNTVIEYTTDRIINTAGLDESEITKTEVNKIPLRLEMLRSGQIDAAVLPDPFITIAMADG”, which “soluble on expression in E. coli” value is on record?
Its value is “not soluble”.

With “MSIYSKILVVADINHDEQPALARAMQLAQKSTSVSHITFFLSIYDFSYDMTSMLSLEERDAMRKGVIHQREQWMRSIAEPYLDKSVQFDIKVVWHNRPYEAIIGEIFAGEHDILIKATRKHDMLESVIFTPTDWHLMRKCPTPVLLVKNADWPENANIIASVHVGSELDTHIDLNDRMVEQLLNLSKRLGASPYLVNAYPVTPANITIELPEFDPTTYTDAVRGHHLTAMKALRQKHGLSEEQTLVQQGLPEDVIPEAAKQLNAAMVILGTTGRTGLSAVFIGNTAEHVIDKINCDVLALKPNGYVSPLDPQTAI” as the sequence, how does the “soluble on expression in E. coli” value read?
The value was “not soluble”.

For “MSKHKVSPATIAKNKKALHDYTILEKFEAGIVLQGWEVKSIRAGKVQMVDSHVHIKHGEAWLFNCLITPLLSASTHVVADAAATRKLLLNRREINKIMGRIEQKGFTCIPLSMYWKGPRVKVEIALAQGKKVHDKRQAQKDKDWAREKDRLFKKAYK”, which “soluble on expression in E. coli” value is on record?
The value was “not soluble”.

Which “soluble on expression in E. coli” value does the source give for “MAQHVKFHQYFFQWMQLYKLDAVRPVTYRKYEMSHRQLVTLAPDLKMADLSRLTYQQLLNDYAETHERQTTMDFHRHLKGSLIDALEEGFIDRDPTRKAIIKGIKLEHHHHHH” here?
The value was “not soluble”.

For “MGSDKIHHHHHHMPGKAKGRSLTAAQFNLRSDRLIAGKALRNVLPRTEQASWQPAQDRRDPIAILEDSNQGRVPELIPIRYGRMLRSPFTFLRGSAAIMAYDLATTPNTGIHVQACGDCHLLNFGLFATPERNLVFDINDFDETHPAPWEWDLKRLAVSFVIAARNNQVVDQEAESIAVSCTRSYREHLRNYSRMSPLEVWYARLEMKEIIEMAPTEKIRKRREEFAERAQKRIAEHLFPKIVTLKEGKHQFVDQPPILFHSNDPTLRNRVINGLQAYRKSLPDERRVLFDRYRLEDYATKVVGIGSVGTHCSIALFFSEENHPLILQVKEARQSVLEPYTQTNCYENQGQRVVVGQRLMQSSSDIFLGWARSDLGRDFYVRQLRDMKFSLPIDGMQAERFHRYAEFCGWALARAHAKAGDAATISGYLGKADAFDEAIAKFAVAYADQTEQDYTALVQAVASGRIEAIVEEDL”, which “soluble on expression in E. coli” value is on record?
The value was “not soluble”.

With “MDENLRQLAESILTDLTQDAPIANTMLKAKVFASKKNDKDLLSWIEHELNGYEENLPKYRLLDAGVKVDIHRGFQEVLGYNYPMGMVKDEKVRERLLHLPIHGSISEVEELSTKSGEGTIHIDIPIEIWYHHMRHCINGDIQRAYQFATVASVKQIMVKIKSLLIDYFLKIDKGESLSFLSLIKKETPTMQIIAGIVNTGS” as the sequence, how does the “soluble on expression in E. coli” value read?
Its value is “not soluble”.

For “MFLSRGFNAFIAKPIDVMQLDAVLNTWVRDRKSIEILKQAEMIAPLIIENANQNIFDSVQIEGLDLVRGKKKYNNDAAYLDILRSWHKHTPALLEKMRNPVFENLSEYAITVHGIKGASLGICADEISSKAEELEHYAKSGNIGKVQADNSMFIGMAESLLANIGELLEKFDVGKKEKPKKHAPDPALLDRLLEAAKSYKSTLMEETMCSIESYDYDSDMELVTWLRQQMDDLEYDAIRQKLESRMPGFVET”, which “soluble on expression in E. coli” value is on record?
Its value is “not soluble”.

With “GPGSMSKLISDAIAAEDASKWNTSYELYPPRSEKAEEDMMKVLVPNFMHQSPVFLDLTWGAGGRTSGTTMRLCKDLQHAHPDTPINMHITCTNTPKGLIKETLEFAKTHGIRNILALRGDPPSGEEFQVDPDGFACARDLVRYIRDTYGDYFCVSVAGYPEGHPSRIAENGTISHEDHQKELEYLKEKVDAGASFIITQLFYDASLYVKFVKRCREVGITVPILAGLLPITTYAGFVRMVSLCKTSVPSDVKKRVEELKENPDGLKEYGVEQCVQMIECIRASGLDYHHLHFYTLNNSAQIFKILKRLNALVE” as the sequence, how does the “soluble on expression in E. coli” value read?
Its value is “soluble”.

Which “soluble on expression in E. coli” value does the source give for “MSLRTNEHNFHNIEEEIKHVAVYLRLSRGEDESELDNHKTRLLNRCELNNWSYELYKEIGSGSTIDDRPVMQKLLTDVEKNLYDAVLVVDLDRLSRGNGTDNDRILYSMKVSETLIVVESPYQVLDANNESDEEIILFKGFFARFEFKQINKRMREGKKLAQSRGQWVNSVTPYGYIVNKTTKKLTPSEEEAKVVIMIKDFFFEGKSTSDIAWELNKRKIKPRRATEWRSSSIANILQNEVYVGNIVYNKSVGNKKPSKSKTRVTTPYRRLPEEEWRRVYNAHQPLYSKEEFDRIKQYFECNVKSHKGSEGHHHHHH” here?
The value was “soluble”.

For “MSSDGEQDEENPILARHRREKKELRGKILAKKKAAKCGNKQMQKEAGAECEKMEKEMDERHKKELEEAKKPEESEAVPAENPEASTLSPPSPNPEGSDNDGEGPSSSAFYKTVKISNKAAKKQDKKKKTADKMKAAEAADKEAGKNQLSDRQMEKAAVKEMLAEDHMKMIDIPADGDCMYNAISHQLQEEGIEISVRKLRKRCGTYMREHSEDFRPFIEDMANMDSDSSWATYLGGVENVAEIGGVWGGELELKACSMIFEKTIVVYKQYGGRHTIGEEYSSPKDRALRVVFLRHAYSLGEHYNSTCPY”, which “soluble on expression in E. coli” value is on record?
The value was “soluble”.
